Data on one molecule can be found in patent publication US20130302348A1 (MIT, published 2013).

The target in one experiment is T1, BSA (Bos taurus, UniProt P02769).
T1 construct: also called 1% BSA
Description: ELISA, KD table (Example 2).

Experiment [1] concerns the target HA of H1N1 influenza strain PR8 (A/Puerto Rico/8/34) (influenza virus A/Puerto Rico/8/34 …, UniProt P03452 18-565). Description: cell-based or functional assay.
The target in experiment [2] is biotinylated H1 (A/Solomon Islands/03/06) HA polypeptide (influenza virus A/Solomon Islands/03/06).
Experiment [3] has as its target HA polypeptide of subtype H3 (Example 1 ELISA) (influenza virus, strain ). Description: ELISA on HA-coated plate, KD from a fit of fractional saturation (Example 2).
Experiment [4] concerns the target HA polypeptide of subtype H1 (Example 1 ELISA) (influenza virus, strain ). The experiment is described as above.

T1 sequence (P02769 25-607 limits assumed): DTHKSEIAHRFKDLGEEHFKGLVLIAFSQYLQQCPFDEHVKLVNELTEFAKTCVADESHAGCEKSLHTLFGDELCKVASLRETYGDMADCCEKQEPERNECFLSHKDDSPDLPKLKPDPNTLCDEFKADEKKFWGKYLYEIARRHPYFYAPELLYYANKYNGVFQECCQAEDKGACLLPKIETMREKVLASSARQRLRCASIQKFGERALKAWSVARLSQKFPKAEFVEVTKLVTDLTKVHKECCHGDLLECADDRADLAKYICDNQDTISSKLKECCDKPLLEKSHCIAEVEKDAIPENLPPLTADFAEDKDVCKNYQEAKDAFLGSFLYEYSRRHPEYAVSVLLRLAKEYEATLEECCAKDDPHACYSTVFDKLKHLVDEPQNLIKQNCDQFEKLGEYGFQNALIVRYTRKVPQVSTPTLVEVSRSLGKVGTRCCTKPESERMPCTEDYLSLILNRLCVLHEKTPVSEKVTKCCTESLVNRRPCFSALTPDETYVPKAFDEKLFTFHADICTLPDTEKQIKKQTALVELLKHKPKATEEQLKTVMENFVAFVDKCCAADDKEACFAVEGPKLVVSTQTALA

B1: exemplary antibody (VH-1 combined with VL-1; Table 4) (antibody, V domains shown)
VH: EVQLLESGGGLVKPGQSLKLSCAASGFTFTSYGMHWVRQPPGKGLEWVAVISYDGSYKYYADSVQGRFTISRDNSKNTLYLQMNSLRAEDTAVYYCAKDSELRSLLYFEWLSQGYFNPWGAGTTLTVSS
VL: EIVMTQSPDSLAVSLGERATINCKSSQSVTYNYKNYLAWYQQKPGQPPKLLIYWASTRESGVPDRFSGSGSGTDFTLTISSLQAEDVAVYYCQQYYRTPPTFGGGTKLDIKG
notes: also called exemplary influenza antibody
Regarding B1, the binding result in the experiment with BSA is on record as “no binding”. Moreover, the “IC50, microneutralization assay followed by qPCR of viral yield in MDCK cells” value in experiment [1] amounted to 0.5 µg/mL. In addition, the kon (in general, the rate constant with which the complex forms) in experiment [2] amounted to 297000 M⁻¹ s⁻¹. The Kd (in general, the free concentration of one partner at which half of the binding sites on the other are occupied at equilibrium, for simple one-to-one binding) in experiment [3] was found to be 37.2 nM; in experiment [4], 0.074 nM.
